ELISA OD and OD450值 data for three molecules are collected here from CN115433278A.

Assay [1] concerns the target T1, CS1 FC融合标签蛋白 (CS1 Fc fusion tag protein, expressed in 293F cells) (UniProt Q9NQ25).
T1 sequence (looked up): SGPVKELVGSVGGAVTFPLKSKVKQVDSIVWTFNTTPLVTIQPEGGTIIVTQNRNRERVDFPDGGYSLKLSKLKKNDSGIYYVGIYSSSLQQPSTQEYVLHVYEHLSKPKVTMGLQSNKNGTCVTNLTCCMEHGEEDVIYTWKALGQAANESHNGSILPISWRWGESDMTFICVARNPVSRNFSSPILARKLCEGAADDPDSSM
Kind of assay: ELISA, CS1 protein coated at 1 ug/ml, purified antibody at dilution 1K.

Assay [2] addresses T1, CS1 FC融合标签蛋白 (CS1 Fc fusion tag protein, expressed in 293F cells). Kind of assay: ELISA, CS1 protein coated at 1 ug/ml, purified antibody at dilution 25K.
Assay [3] has the same target. As to the kind of experiment: ELISA, CS1 protein coated at 1 ug/ml, purified antibody at dilution 625K.
Assay [4] shares this target. Kind of assay: ELISA, CS1 protein coated at 1 ug/ml, purified antibody at dilution 3125k.
Assay [5] has the same target. Kind of assay: indirect ELISA, CS1 protein coated at 1 ug/ml, B cell culture supernatant, goat anti-rabbit IgG-HRP.
Assay [6] has the same target. As to the kind of experiment: ELISA, CS1 protein coated at 1 ug/ml, purified antibody at dilution 5K.
The target is the same in assay [7]. As to the kind of experiment: ELISA, CS1 protein coated at 1 ug/ml, purified antibody at dilution 15625k.
Assay [8] has the same target. As to the kind of experiment: ELISA, CS1 protein coated at 1 ug/ml, purified antibody at dilution 125K.

B1: 命名为1H2的兔重组单克隆抗体 (rabbit recombinant monoclonal antibody 1H2) (antibody, V domains shown)
VH: QSVEESRGGLIKPTDTLTLTCTVSGFSLSNYGVSWVRQAPGNGLEYIGFIGTIGATLYANWAKSRSTITRNTNLNTVTLKMTSLTAADTATYFCARGIYGDIYVYAFDIWGPGTLVTVSS
VL: AAVLTQTPSPVSAAVGGTVTISCQASQSVRDNGDLAWYQQKPGQPPKLLIYDVSALASGVPSRFKGRGSGTQFTLTISDLECDDAATYSCAGGYIAGSDRWVFGGGTEVVVK
With B1, the ELISA OD was determined as 3.95 in assay [1]; 2.39 in assay [2]; 0.32 in assay [3]; 0.153 in assay [4]; 3.83 in assay [6]; 0.11 in assay [7]. In addition, in assay [8], the ELISA OD was determined as 1.18. In addition, the OD450值 in assay [5] is 1.52 OD450.

B2: 命名为1D12的兔重组单克隆抗体 (rabbit recombinant monoclonal antibody 1D12) (antibody, V domains shown)
VH: QSVEESGGRLVTPGTPLTLTCTVSGFSLSSYGMIWVRQAPGKGLEWIGSINTDGSTYYATWAKGRFTISRTSTTVDLKITSPTTEDTATYFCARGYPGYITDSYYYFNIWGPGTLVTVS
VL: DVVLTQTPASVEAAVRGTVTIKCQASQSISSYLSWYQQKPGQPPKLLIYRASTLESGVPSRFKGSGSGTEFTLTITDLECADAATYYCQCTYGTFHSSGYGFGGGTGVVVK
On to B2, for which the ELISA OD in assay [2] came to 3.45; in assay [3], 0.522; in assay [4], 0.209; in assay [7] it was 0.124; in assay [8], 2.02. The molecule further came in with an OD450值 in assay [5] of 2.13 OD450.

B3: 命名为2B3的兔重组单克隆抗体 (rabbit recombinant monoclonal antibody 2B3) (antibody, V domains shown)
VH: QSVEESGGRLVTPGTPLTLTCTVSGFSLSAYAMGWFRQAPGKGLEYIGIISDSASTFYATWAKGRFTISRTSSTMVDLKMTSPTTEDTATYFCARAYYVVDNDSPFNMWGPGTVVTVS
VL: VMTQTPSSVSAAVGGTVTINCQASENIYSSLAWYQQKPGQPPKLLIYAASKLESGVPSRFKGSRSETDFTLTISDLECDDAATYYCQSYYDTGRASFAFGGGTEVVVK
As to B3, the ELISA OD came out at 2.91 in assay [2]; 0.276 in assay [3]; 0.161 in assay [4]; 3.95 in assay [6]; 0.108 in assay [7]; 0.98 in assay [8]. The OD450值 in assay [5] was found to be 2.03 OD450.
